These results are taken from patent US6921663.

Holding throughout (test): cell-based or functional assay
The target of assay [1] is RGD peptide target integrin (αvβ3 or αvβ5) on LN444 cells (human (LN444 human glioma cells)) (UniProt P06756).
Assay [2] deals with integrin on SK-HEP1 cells (human (cell line)).
The next assay deals with integrin on CHO cells.

Chain of UniProt P06756 (P06756 whole entry): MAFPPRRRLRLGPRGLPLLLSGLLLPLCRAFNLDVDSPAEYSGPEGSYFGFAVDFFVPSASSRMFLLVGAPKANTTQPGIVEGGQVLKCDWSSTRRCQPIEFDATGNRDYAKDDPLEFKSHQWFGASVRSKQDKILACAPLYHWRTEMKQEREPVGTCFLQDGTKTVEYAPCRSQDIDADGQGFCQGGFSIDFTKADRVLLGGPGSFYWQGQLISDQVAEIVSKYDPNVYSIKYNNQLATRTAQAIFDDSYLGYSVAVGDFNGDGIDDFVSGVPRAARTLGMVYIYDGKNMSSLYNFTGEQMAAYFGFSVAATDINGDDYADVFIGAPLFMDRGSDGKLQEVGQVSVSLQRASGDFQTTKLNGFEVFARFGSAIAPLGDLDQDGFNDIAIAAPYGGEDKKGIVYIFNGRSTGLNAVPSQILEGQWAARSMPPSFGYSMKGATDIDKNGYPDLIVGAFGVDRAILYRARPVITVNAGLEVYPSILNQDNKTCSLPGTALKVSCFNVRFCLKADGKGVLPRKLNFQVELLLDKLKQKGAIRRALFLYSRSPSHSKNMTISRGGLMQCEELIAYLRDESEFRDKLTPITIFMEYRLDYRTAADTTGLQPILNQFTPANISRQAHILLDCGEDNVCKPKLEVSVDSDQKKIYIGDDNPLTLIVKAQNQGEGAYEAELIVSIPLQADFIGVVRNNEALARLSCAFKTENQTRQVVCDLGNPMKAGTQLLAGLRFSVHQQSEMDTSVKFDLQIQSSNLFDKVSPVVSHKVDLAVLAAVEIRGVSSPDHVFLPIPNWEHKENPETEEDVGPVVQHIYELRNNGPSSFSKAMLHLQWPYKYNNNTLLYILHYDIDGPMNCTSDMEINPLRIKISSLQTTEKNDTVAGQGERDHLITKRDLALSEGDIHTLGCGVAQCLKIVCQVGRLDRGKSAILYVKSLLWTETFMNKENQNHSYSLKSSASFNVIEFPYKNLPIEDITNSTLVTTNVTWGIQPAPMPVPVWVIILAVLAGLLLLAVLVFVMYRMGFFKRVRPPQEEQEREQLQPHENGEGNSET

For “AdHM15-RGD-L2 (adenovirus type 5 vector whose fiber carries the RGD-4C peptide in the HI loop; luciferase cassette) (from UniProt P11818 1-546; P11818 547-581)”, the Luc enzyme activity after transduction of LN444 cells (CAR not expressed), against AdHM4-L2 (wild fiber) in assay [1] is 1000 fold. For the same substance, the Luc enzyme activity after transduction of SK-HEP1 cells, against AdHM4-L2 (wild fiber) in assay [2] is 10 fold.

Take “AdHM15-RGD-LacZ (adenovirus type 5 vector whose fiber carries the RGD-4C peptide in the HI loop; LacZ cassette in the E1-deleted region) (from UniProt P11818 1-546; P11818 547-581)”: the LacZ enzyme activity after transduction of CHO cells (CAR not expressed), against AdHM4-LacZ (wild fiber) with integrin on CHO cells is 40 fold. For the same substance, the LacZ enzyme activity after transduction of SK-HEP1 cells, against AdHM4-LacZ (wild fiber) in assay [2] came out at 2 fold.
